Data reported in publication PMC8781159, “Implication of Potential Differential Roles of the Two Phosphoglucomutase Isoforms in the Protozoan Parasite Cryptosporidium parvum” (Pathogens, 2021).

Experiments:
[1] = target: T1, CpPGM1B long form (rCpPGM1B-L) (Cryptosporidium parvum, UniProt Q5CTF2); assay: G6PDH-coupled assay, NADH formation at […] nm; assay type: biochemical; details: 50 mM Tris-HCl pH 8.5, 1.0 mM MgCl2, 0.2 mM NAD+, 2 mM G1P
T1 construct: gene cgd2_3270; linker plus PGM1 domain; signal peptide (63 nt) removed (full ORF 2013 bp); MBP-fusion (pMAL-c5x), E. coli BL21(DE3), MBP kept
T1 sequence (Q5CTF2 24-670): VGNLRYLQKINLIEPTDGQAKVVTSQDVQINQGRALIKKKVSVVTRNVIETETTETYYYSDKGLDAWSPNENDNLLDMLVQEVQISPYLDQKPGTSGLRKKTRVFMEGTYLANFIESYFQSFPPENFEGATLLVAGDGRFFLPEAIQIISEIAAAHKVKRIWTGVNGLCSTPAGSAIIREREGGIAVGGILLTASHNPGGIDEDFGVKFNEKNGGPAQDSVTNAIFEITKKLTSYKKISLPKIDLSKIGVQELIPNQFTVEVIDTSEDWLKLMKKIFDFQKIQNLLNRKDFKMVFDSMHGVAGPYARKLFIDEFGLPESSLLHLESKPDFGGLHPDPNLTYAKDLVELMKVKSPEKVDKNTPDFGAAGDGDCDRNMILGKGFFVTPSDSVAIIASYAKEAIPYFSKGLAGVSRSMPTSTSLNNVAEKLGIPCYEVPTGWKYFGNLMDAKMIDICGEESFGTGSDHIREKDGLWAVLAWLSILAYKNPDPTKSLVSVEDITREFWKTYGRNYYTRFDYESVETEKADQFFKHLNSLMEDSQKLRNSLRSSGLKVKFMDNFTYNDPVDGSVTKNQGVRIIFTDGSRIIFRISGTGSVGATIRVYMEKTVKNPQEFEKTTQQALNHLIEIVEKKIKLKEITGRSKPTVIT

[2] = substrate: O=P(O)(O)O[C@H]1O[C@H](CO)[C@@H](O)[C@H](O)[C@H]1O; assay: purified protein; assay type: biochemical, Cryptosporidium parvum; details: 50 mM Tris-HCl pH 8.5, 1.0 mM MgCl2, 0.2 mM NAD+

Molecule	G6PDH-coupled assay, NADH formation at 340 nm [1]	Km [2]
O=P(O)(O)O[C@H]1O[C@H](CO)[C@@H](O)[C@H](O)[C@H]1O [G1P, glucose-1-phosphate]	rCpPGM1A, rCpPGM1B-L and rCpPGM1B-S) displayed activity in converting G1P to G6P	
CpPGM1A (rCpPGM1A) (Cryptosporidium parvum) (protein) MEQVQVTPYLDQKPGTSGLRKKTRVFMEGTYLANFIESYFQSFPPENFEGATLLVAGDGRFFLPEAIQIISEIAAAHKVKRIWTGVNGLCSTPAGSAIIREREGGIAVGGILLTASHNPGGIDEDFGVKFNGKNGGPAQDSVTNTIFEITKKLTSYKKISLPKIDLSKIGVQELIPNQFTVEVIDTSEDWLKLMKKIFDFQKIQNLLNRKDFKMAFDSMHGVAGPYARKLFVDEFGLPESSLLHLESKPDFGGLHPDPNLTYAKDLVELMKVKSPEKVDKSTPDFGAAGDGDCDRNMILGKGFFVTPSDSVAIIASYAKEAIPYFSKGLAGVSRSMPTSTSLNNVAEKLGIPCYEVPTGWKYFGNLMDAKMIDICGEESFGTGSDHIREKDGLWAVLAWLSILAHKNPDPTKPLVSVEDITREFWKTYGRNYYTRFDYESIETEKADQFFKHLNSLMEDHQKLREIIKPYGIDIKLTDNFTYNDPVDKSVAKNQGLRFIFQDNSRVVFRLSGTGSVGATIRIYIEKTVSDQTKVNSTSNEILGDLIEIVEKKIKLKESTGRDRPTVIT		170 µM
CpPGM1B short form (rCpPGM1B-S) (Cryptosporidium parvum Iowa II) (protein, PGM1 domain only; signal peptide and ~80 aa linker removed (full ORF 2013 bp); MBP-fusion (pMAL-c5x), E. coli BL21(DE3), MBP kept) LLDMLVQEVQISPYLDQKPGTSGLRKKTRVFMEGTYLANFIESYFQSFPPENFEGATLLVAGDGRFFLPEAIQIISEIAAAHKVKRIWTGVNGLCSTPAGSAIIREREGGIAVGGILLTASHNPGGIDEDFGVKFNEKNGGPAQDSVTNAIFEITKKLTSYKKISLPKIDLSKIGVQELIPNQFTVEVIDTSEDWLKLMKKIFDFQKIQNLLNRKDFKMVFDSMHGVAGPYARKLFIDEFGLPESSLLHLESKPDFGGLHPDPNLTYAKDLVELMKVKSPEKVDKNTPDFGAAGDGDCDRNMILGKGFFVTPSDSVAIIASYAKEAIPYFSKGLAGVSRSMPTSTSLNNVAEKLGIPCYEVPTGWKYFGNLMDAKMIDICGEESFGTGSDHIREKDGLWAVLAWLSILAYKNPDPTKSLVSVEDITREFWKTYGRNYYTRFDYESVETEKADQFFKHLNSLMEDSQKLRNSLRSSGLKVKFMDNFTYNDPVDGSVTKNQGVRIIFTDGSRIIFRISGTGSVGATIRVYMEKTVKNPQEFEKTTQQALNHLIEIVEKKIKLKEITGRSKPTVIT		130 µM
